From PMC7954794, “Protein context shapes the specificity of SH3 domain-mediated interactions in vivo” (Nature Communications, 2021)

B1: YPL246C (protein, UniProt Q12270 1-262, looked up)
Rhomboid-type serine protease …: MNWKSYVFPGGHPPAALTTGLVVFLTAIYLLSFIFALREDLSLAPESLFKLQMSRLSLYPLIHLSLPHLLFNVLAIWAPLNLFEETHGTVYTGVFLNLSALFAGILYCLLGKLLYPEALVAGASGWCFTLFAYYSFKESQIRPRTRIFRTDYSIPTLYTPLVLLVAIAVVIPGSSFWGHFFGLCVGYAIGYKESWFNKITPPGWIITKIEKSLDGLIRLIPWGIKYYRDEDIDRTKDYEPLMSTETPLPLHNDNSGTVLGTA
B2: YBL071W-A (protein, UniProt Q3E840 1-82, looked up)
Diphthamide biosynthesis …: MSTYDEIEIEDMTFEPENQMFTYPCPCGDRFQIYLDDMFEGEKVAVCPSCSLMIDVVFDKEDLAEYYEEAGIHPPEPIAAAA
B3: YNR007C (protein, UniProt P40344 1-310, looked up)
Autophagy-related protein 3: MIRSTLSSWREYLTPITHKSTFLTTGQITPEEFVQAGDYLCHMFPTWKWNEESSDISYRDFLPKNKQFLIIRKVPCDKRAEQCVEVEGPDVIMKGFAEDGDEDDVLEYIGSETEHVQSTPAGGTKDSSIDDIDELIQDMEIKEEDENDDTEEFNAKGGLAKDMAQERYYDLYIAYSTSYRVPKMYIVGFNSNGSPLSPEQMFEDISADYRTKTATIEKLPFYKNSVLSVSIHPCKHANVMKILLDKVRVVRQRRRKELQEEQELDGVGDWEDLQDDIDDSLRVDQYLIVFLKFITSVTPSIQHDYTMEGW
B4: YMR080C (protein, UniProt P30771 1-971, looked up)
ATP-dependent helicase NAM7: MVGSGSHTPYDISNSPSDVNVQPATQLNSTLVEDDDVDNQLFEEAQVTETGFRSPSASDNSCAYCGIDSAKCVIKCNSCKKWFCNTKNGTSSSHIVNHLVLSHHNVVSLHPDSDLGDTVLECYNCGRKNVFLLGFVSAKSEAVVVLLCRIPCAQTKNANWDTDQWQPLIEDRQLLSWVAEQPTEEEKLKARLITPSQISKLEAKWRSNKDATINDIDAPEEQEAIPPLLLRYQDAYEYQRSYGPLIKLEADYDKQLKESQALEHISVSWSLALNNRHLASFTLSTFESNELKVAIGDEMILWYSGMQHPDWEGRGYIVRLPNSFQDTFTLELKPSKTPPPTHLTTGFTAEFIWKGTSYDRMQDALKKFAIDKKSISGYLYYKILGHQVVDISFDVPLPKEFSIPNFAQLNSSQSNAVSHVLQRPLSLIQGPPGTGKTVTSATIVYHLSKIHKDRILVCAPSNVAVDHLAAKLRDLGLKVVRLTAKSREDVESSVSNLALHNLVGRGAKGELKNLLKLKDEVGELSASDTKRFVKLVRKTEAEILNKADVVCCTCVGAGDKRLDTKFRTVLIDESTQASEPECLIPIVKGAKQVILVGDHQQLGPVILERKAADAGLKQSLFERLISLGHVPIRLEVQYRMNPYLSEFPSNMFYEGSLQNGVTIEQRTVPNSKFPWPIRGIPMMFWANYGREEISANGTSFLNRIEAMNCERIITKLFRDGVKPEQIGVITPYEGQRAYILQYMQMNGSLDKDLYIKVEVASVDAFQGREKDYIILSCVRANEQQAIGFLRDPRRLNVGLTRAKYGLVILGNPRSLARNTLWNHLLIHFREKGCLVEGTLDNLQLCTVQLVRPQPRKTERPMNAQFNVESEMGDFPKFQDFDAQSMVSFSGQIGDFGNAFVDNTELSSYINNEYWNFENFKSAFSQKQNRNEIDDRNLYQEEASHLNSNFARELQREEQKHELSKDFSNLGI
B5: YLR258W (protein, UniProt P27472 1-705, looked up)
Glycogen [starch] synthase …: MSRDLQNHLLFETATEVANRVGGIYSVLKSKAPITVAQYKDHYHLIGPLNKATYQNEVDILDWKKPEAFSDEMRPVQHALQTMESRGVHFVYGRWLIEGAPKVILFDLDSVRGYSNEWKGDLWSLVGIPSPENDFETNDAILLGYTVAWFLGEVAHLDSQHAIVAHFHEWLAGVALPLCRKRRIDVVTIFTTHATLLGRYLCASGSFDFYNCLESVDVDHEAGRFGIYHRYCIERAAAHSADVFTTVSQITAFEAEHLLKRKPDGILPNGLNVIKFQAFHEFQNLHALKKEKINDFVRGHFHGCFDFDLDNTLYFFIAGRYEYKNKGADMFIEALARLNYRLKVSGSKKTVVAFIVMPAKNNSFTVEALKGQAEVRALENTVHEVTTSIGKRIFDHAIRYPHNGLTTELPTDLGELLKSSDKVMLKRRILALRRPEGQLPPIVTHNMVDDANDLILNKIRQVQLFNSPSDRVKMIFHPEFLNANNPILGLDYDEFVRGCHLGVFPSYYEPWGYTPAECTVMGVPSITTNVSGFGAYMEDLIETNQAKDYGIYIVDRRFKAPDESVEQLVDYMEEFVKKTRRQRINQRNRTERLSDLLDWKRMGLEYVKARQLALRRGYPDQFRELVGEELNDSNMDALAGGKKLKVARPLSVPGSPRDLRSNSTVYMTPGDLGTLQEVNNADDYFSLGVNPAADDDDDGPYADDS
B6: YOR229W (protein, UniProt Q12206 1-467, looked up)
Transcriptional modulator WTM2: MAKSKSSQGASGARRKPAPSLYQHISSFKPQFSTRVDDVLHFSKTLTWRSEIIPDKSKGTLTTSLLYSQGSDIYEIDTTLPLKTFYDDDDDDDNDDDDEEGNGKTKSAATPNPEYGDAFQDVEGKPLRPKWIYQGETVAKMQYLESSDDSTAIAMSKNGSLAWFRDEIKVPVHIVQEMMGPATRYSSIHSLTRPGSLAVSDFDVSTNMDTVVKSQSNGYEEDSILKIIDNSDRPGDILRTVHVPGTNVAHSVRFFNNHLFASCSDDNILRFWDTRTADKPLWTLSEPKNGRLTSFDSSQVTENLFVTGFSTGVIKLWDARAVQLATTDLTHRQNGEEPIQNEIAKLFHSGGDSVVDILFSQTSATEFVTVGGTGNVYHWDMEYSFSRNDDDNEDEVRVAAPEELQGQCLKFFHTGGTRRSSNQFGKRNTVALHPVINDFVGTVDSDSLVTAYKPFLASDFIGRGYDD

What was measured:
[1] = test system: ABP1; assay: DHFR-PCA on solid medium, bait ABP1 (Fig. 1B); format: cell-based, Saccharomyces cerevisiae; settings: bait ABP1, label = prey; for medrep (log2 median colony size normalized to plate background, PCA score): 2-4 replicates; for Ratio (SH3-deleted/WT medrep): only significant differences showed, PPIs completely lost have a ratio of 0.1 and the gained PPIs 2.5
Excerpt: Supplement 41467_2021_21873_MOESM8_ESM.xlsx, sheet "Fig1B" | column: medsize; medrep; Ratio; Score

[2] = test system: Abp1 PPIs; assay: DHFR-PCA of Abp1 SH3-swapped baits (Fig. 2B-D, S2C, S2F); format: cell-based, Saccharomyces cerevisiae; settings: Fig2B; bait ABP1, label = prey; Replicates 4
Excerpt: Having determined that multiple PPIs require SH3s, we asked whether the latter establish PPI specificity independently from their host proteins by swapping domains (Fig. 2A). Using the second round of genome editing, we individually replaced Abp1 SH3 with the 27 yeast SH3s and 3 human Abp1 orthologs’ SH3s (CTTN, HCLS1, and DBNL, Fig. 2B). The reintroduction of its own SH3 (Abp1SH3 in Abp1) reconstitutes almost perfectly Abp1’s interaction profile (Kendall’s τ = 0.93, Fig. 2B). […] No homologous SH3 domain fully re-establishes the normal Abp1 PPI profile (Fig. 2B and Supplementary Fig. 2C). However, we observe a significant correlation (cophenetic correlation = 0.20, p value = 0.005, Fig. 2C) between the similarity of PPI profiles (Fig. 2B) and the sequence similarity of the SH3s. […] Nonetheless, a subset of SH3-dependent PPIs is only observed with the endogenous domain. For instance, Hua2 and App1, both well-characterized partners of Abp1[14],[18],[19], are only detected when Abp1 contains its own SH3 (WT or swapped via editing). A given SH3 may therefore not be fully replaceable with other paralogous or orthologous domains. This pattern is confirmed by cellular growth phenotypic analyses (Supplementary Fig. 2D, E). PPIs, SH3 sequence similarity, and growth profiles under stress conditions are correlated (Supplementary Fig. 2D, E). This relationship is particularly clear when analyzing growth on media supplemented with hygromycin.
The stuffing of YSC84 SH3 rendered the strain sterile and was therefore not used for this study as the assays require crosses. For genes containing two SH3s (BZZ1 and BEM1), a combination of this first stuffer with a second one ([…]) coding for a highly similar linker ([…]) was used, which allowed targeting each SH3 position independently. The two N-terminal domains of SLA1, which are separated by six nucleotides, were stuffed by a single stuffer. Cells containing pCAS were selected via the G418 resistance cassette from the plasmid on YPD plates (YPD + NAT 100 μg/ml (DHFR F[1,2] selection) + G418 200 µg/mL (Bioshop Canada)). Colonies were randomly selected and grown in YPD media without G418 to allow plasmid loss. The correct insertion of the stuffer was validated by PCR and Sanger sequencing. The SH3-swapped, -shuffled, and -mutated strains were constructed following a second CRISPR–Cas9 editing step with the same procedures. The stuffer sequences were targeted by specific gRNAs (one gRNA per stuffer) and replaced by PCR amplified specific SH3 (with 40 bp homology arms) or libraries of mutated SH3 domains for Deep Mutational Scanning (DMS) with 78 bp flanking homology regions. Validation of the SH3 domain insertions was done as we previously described except for DMS libraries (see below).
The overall DHFR-PCA pipeline is based on Tarassov et al.[43] and the procedures have also been published as a visualized protocol. The screens were performed with robotically manipulated pin tools (BM5-SC1, S&P Robotics Inc.). First, the preys were cherry-picked from 96-well plates to omnitrays in a 384 format on YPD + HPH solid media. Plates were then combined into the 1536 format on YPD + HPH. The array was constituted of 575 preys previously shown to interact physically with at least one SH3-containing protein as reported in BioGRID V3.4.16 along with 40 negative controls. The prey array comprised a border of control strains of two rows and two columns corresponding to the PPI between LSM8-DHFR F[1,2] and CDC39-DHFR F[3]. This double border was used to remove border effects. Preys are present in duplicate at a randomized position in the 1536 array (except for YAL041W which is present four times per array). Baits were crossed with two prey plates, resulting in four independent bait–prey tests for each PPI. Baits were grown in liquid YPD + NAT and then transferred on solid YPD + NAT omnitrays. They were then replicated on YPD + NAT omnitrays in 1536 array format. […]

Row | Molecule | medrep (log2 median colony size normalized to plate background, PCA score) [1] | Ratio (SH3-deleted/WT medrep) [1] | medrep (log2 median colony size normalized to plate background) [2] | medsize (median colony size) [2]
1 | B1 | 1.384 | 2.5 | – | –
2 | B2 | 1.99 | 1.369 | 1.454 | 388
3 | B3 | 1.566 | 2.5 | – | –
4 | B4 | 1.542 | 2.5 | – | –
5 | B5 | 1.989 | 2.5 | – | –
6 | B6 | 1.855 | 2.5 | – | –
